Test results published in the RNAGym collection of RNA variant scans (doi:10.1093/molbev/msab373).

B1: Azoarcus group I ribozyme (parent)
chain: GUGCCUUGCGCCGGGAAACCACGCAAGGGAUGGUGUCAAAUUCGGCGAAACCUAAGCGCCCGCCCGGGCGUAUGGCAACGCCGAGCCAAGCUUCGGCGCCUGCGCCGAUGAAGGUGUAGAGACUAGACGGCACCCACCUAAGGCAAACGCUAUGGUGAAGGCAUAGUCCAGGGAGUGGCGAAAGUCACACAAACCGG

Variants of: B1
Assay: reverse-splicing fitness (ratio to wild type); higher = more active; in vitro selection; Mg2+ level not given
In short: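 An in vitro group I ribozyme library with randomized positions was T7-transcribed and gel-purified. In triplicate, 10 pmol RNA in EPPS pH 7.5 was reacted with 50 pmoles of a 30-nt RNA substrate for 1 h at 37 °C across several added MgCl2 levels (1–48 mM), then stopped with EDTA. Products were reverse transcribed from a substrate-complementary primer, PCR-amplified and sequenced (HiSeq 4000). Fitness is a variant's read proportion after selection over that before, normalised to wild type.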

First: C82G A111U A120U A145U C150G C169A U176C
Second: C82G A111U A120U A145U C150G C169A U176G
The reverse-splicing fitness of the first is higher: 0.00246 for the first, 0.00233 for the second.

Compared with C82G A111U A120U A145G C150A C169U U176A, C82G A111U A120U A145G C150A C169U U176C is higher in reverse-splicing fitness: 0.00402 for the first, 0.00514 for the second.

Going from C82G A111U A120U A145G C150A C169U U176G to C82G A111U A120U C150A C169U U176C, the reverse-splicing fitness rises from 0.00285 to 0.00482.

Going from C82G A111U A120U C150A C169U U176A to C82G A111U A120U C150A C169U U176G, the reverse-splicing fitness falls from 0.00604 to 0.00236.

Compared with C82G A111U A120U A145G C150G C169G U176A, C82G A111U A120U A145G C150G C169G U176C is lower in reverse-splicing fitness: 0.00963 for the first, 0.00596 for the second.

Going from C82G A111U A120U A145G C150G C169G U176G to C82G A111U A120U C150U, the reverse-splicing fitness rises from 0.00407 to 0.0256.

Going from C82G A111U A120U C150A to C82G A111U A120U C150G, the reverse-splicing fitness falls from 0.00965 to 0.00761.

First: C82G A111U A145G C150G C169A
Second: C82G A111U A145G C150G C169U
The reverse-splicing fitness of the first is higher: 0.00977 for the first, 0.00972 for the second.

Going from C82G A111U A145G C150G C169G to C82G A111U A120U A145G C150A C169G U176A, the reverse-splicing fitness rises from 0.00715 to 0.00878.

First: C82G A111U A120U A145G C150A C169G U176C
Second: C82G A111U A120U A145G C150A C169G U176G
The reverse-splicing fitness of the first is higher: 0.00577 for the first, 0.00257 for the second.

First: C82G A111U A120U A145U C150U C169A U176A
Second: C82G A111U A120U A145U C150U C169A U176G
The reverse-splicing fitness of the first is higher: 0.00283 for the first, 0.00252 for the second.

Compared with C82G A111U A120U A145U C150U C169A U176C, C82G A111U A145G C150U C169G U176C is higher in reverse-splicing fitness: 0.0027 for the first, 0.0191 for the second.

Compared with C82G A111U A145G C150U C169G U176G, C82G A111U A145G C150U C169G U176A is higher in reverse-splicing fitness: 0.0058 for the first, 0.0141 for the second.

Compared with C82G A111U A120U C150U U176G, C82G A111U A120U C150U U176A is higher in reverse-splicing fitness: 0.00391 for the first, 0.00931 for the second.

First: C82G A111U A120U C150U U176C
Second: C82G A111U A120U C150A C169A U176C
The reverse-splicing fitness of the first is higher: 0.0123 for the first, 0.00429 for the second.

Going from C82G A111U A120U C150A C169A U176G to C82G A111U A120U C150A C169A U176A, the reverse-splicing fitness rises from 0.00233 to 0.00677.

Going from C82G A111U A120U A145G C150A to C82G A111U A120U A145G C150G, the reverse-splicing fitness falls from 0.0109 to 0.00902.

First: C82G A111U A120U A145G C150U
Second: C82G A111U A120U A145G C150U C169A U176C
The reverse-splicing fitness of the first is higher: 0.0351 for the first, 0.00451 for the second.

Compared with C82G A111U A120U A145G C150U C169A U176A, C82G A111U A120U A145G C150U C169A U176G is lower in reverse-splicing fitness: 0.0082 for the first, 0.00276 for the second.

Compared with C82G A111U A145G C150G C169A U176C, C82G A111U A145G C150G C169A U176G is lower in reverse-splicing fitness: 0.0129 for the first, 0.00877 for the second.

Compared with C82G A111U A145G C150G C169A U176A, C82G A111U A145C C150G U176A is higher in reverse-splicing fitness: 0.0133 for the first, 0.0157 for the second.

First: C82G A111U A145C C150G U176G
Second: C82G A111U A145C C150G U176C
The reverse-splicing fitness of the first is lower: 0.00504 for the first, 0.0238 for the second.

First: C82G A111U A145G C150A C169A
Second: C82G A111U A145G C150A C169G
The reverse-splicing fitness of the first is higher: 0.0112 for the first, 0.00989 for the second.

Going from C82G A111U A145G C150A C169U to C82G A111U A120U A145C U176A, the reverse-splicing fitness falls from 0.0113 to 0.00848.

Compared with C82G A111U A120U A145C U176G, C82G A111U A120U A145C U176C is higher in reverse-splicing fitness: 0.00404 for the first, 0.0125 for the second.

Going from C82G A111U A120U C150U C169G to C82G A111U A120U C150U C169U, the reverse-splicing fitness falls from 0.00565 to 0.00485.

Compared with C82G A111U A120U C150U C169A, C82G A111U A145C C169G U176A is higher in reverse-splicing fitness: 0.0056 for the first, 0.0258 for the second.

Going from C82G A111U A145C C169G U176C to C82G A111U A145C C169G U176G, the reverse-splicing fitness falls from 0.0144 to 0.00528.

First: C82G A111U A145C C150A C169U U176A
Second: C82G A111U A145C C150A C169U U176C
The reverse-splicing fitness of the first is higher: 0.0163 for the first, 0.00987 for the second.

Compared with C82G A111U A145C C150A C169U U176G, C82G A111U A120U A145C C150U U176A is lower in reverse-splicing fitness: 0.00599 for the first, 0.00477 for the second.

Compared with C82G A111U A120U A145C C150U U176C, C82G A111U A120U A145C C150U U176G is lower in reverse-splicing fitness: 0.00545 for the first, 0.00297 for the second.

Compared with C82G A111U A120U A145C C169G U176A, C82G A111U A120U A145C C169G U176G is lower in reverse-splicing fitness: 0.00225 for the first, 0.00158 for the second.

First: C82G A111U A120U A145C C169G U176C
Second: C82G A111U A120U C169G U176G
The reverse-splicing fitness of the first is higher: 0.00219 for the first, 0.00175 for the second.

Compared with C82G A111U A120U C169G U176C, C82G A111U A120U C169G U176A is lower in reverse-splicing fitness: 0.00385 for the first, 0.00374 for the second.

Going from C82G A111U A120U A145U C150U C169U U176A to C82G A111U A120U A145U C150U C169U U176G, the reverse-splicing fitness falls from 0.00325 to 0.0023.

Compared with C82G A111U A120U A145U C150U C169U U176C, C82G A111U A120U A145G C150U C169G U176G is lower in reverse-splicing fitness: 0.00369 for the first, 0.00266 for the second.

First: C82G A111U A120U A145G C150U C169G U176C
Second: C82G A111U A120U A145G C150U C169G U176A
The reverse-splicing fitness of the first is lower: 0.00575 for the first, 0.00833 for the second.

Going from C82G A111U A120U A145U C150U C169G to C82G A111U A120U A145U C150U C169A, the reverse-splicing fitness falls from 0.00327 to 0.00323.

Compared with C82G A111U A120U A145U C150U C169U, C82G A111U A120U A145G C150G U176G is higher in reverse-splicing fitness: 0.00381 for the first, 0.00462 for the second.

First: C82G A111U A120U A145G C150G U176C
Second: C82G A111U A120U A145G C150G U176A
The reverse-splicing fitness of the first is higher: 0.00861 for the first, 0.00648 for the second.

First: C82G A111U A120U A145U C150U
Second: C82G A111U A120U A145U C150G
The reverse-splicing fitness of the first is higher: 0.0274 for the first, 0.00782 for the second.

C82G A111U A120U A145U C150A gave a reverse-splicing fitness of 0.00721.
